Source: article PMC5717138

B1: DNA polymerase η (Polη): T457A (protein)
parent chain: MATGQDRVVALVDMDCFFVQVEQRQNPHLRNKPCAVVQYKSWKGGGIIAVSYEARAFGVTRSMWADDAKKLCPDLLLAQVRESRGKANLTKYREASVEVMEIMSRFAVIERASIDEAYVDLTSAVQERLQKLQGQPISADLLPSTYIEGLPQGPTTAEETVQKEGMRKQGLFQWLDSLQIDNLTSPDLQLTVGAVIVEEMRAAIERETGFQCSAGISHNKVLAKLACGLNKPNRQTLVSHGSVPQLFSQMPIRKIRSLGGKLGASVIEILGIEYMGELTQFTESQLQSHFGEKNGSWLYAMCRGIEHDPVKPRQLPKTIGCSKNFPGKTALATREQVQWWLLQLAQELEERLTKDRNDNDRVATQLVVSIRVQGDKRLSSLRRCCALTRYDAHKMSHDAFTVIKNCNTSGIQTEWSPPLTMLFLCATKFSASAPSSSTDITSFLSSDPSSLPKVPVTSSEAKTQGSGPAVTATKKATTSLESFFQKAAERQKVKEASLSSLTAPTQAPMSNSPSKPSLPFQTSQSTGTEPFFKQKSLLLKQKQLNNSSVSSPQQNPWSNCKALPNSLPTEYPGCVPVCEGVSKLEESSKATPAEMDLAHNSQSMHASSASKSVLEVTQKATPNPSLLAAEDQVPCEKCGSLVPVWDMPEHMDYHFALELQKSFLQPHSSNPQVVSAVSHQGKRNPKSPLACTNKRPRPEGMQTLESFFKPLTH
B2: DNA polymerase η (Polη): T457A with GST-OGT co-expression (protein)
parent chain: B1 parent chain

What was measured:
[1] = DNA fiber assay, no cisplatin; conditions: glycan lost; control: wild type
[2] = DNA fiber assay after cisplatin; conditions: glycan lost; control: wild type
[3] = GFP-Polη foci, U2OS, 8 h post-UVC; conditions: glycan lost; control: wild type
[4] = GFP-Polη foci, U2OS, 24 h post-UVC; conditions: glycan lost; control: wild type
[5] = quantitative MS of di-Gly peptides; conditions: glycan lost; control: wild type
[6] = GFP-Polη foci, U2OS, 24 h after cisplatin; conditions: glycan lost; control: wild type
[7] = chromatin-fraction IP, anti-ubiquitin/K48 blot; conditions: glycan lost; control: wild type
[8] = supF shuttle vector assay, complemented XP30RO; conditions: glycan lost; control: wild type
[9] = RPA foci, complemented XP30RO, 4 and 24 h post-UV; conditions: glycan lost; control: wild type
[10] = denaturing Flag IP, anti-HA-Ub and anti-K48-Ub blot; conditions: glycan lost; control: wild type
[11] = RPA2 foci-positive cells, 24 h recovery after cisplatin; conditions: glycan lost; control: wild type
[12] = GFP-Polη foci, U2OS, 34 and 46 h after cisplatin removal; conditions: glycan lost; control: wild type
[13] = chromatin fractionation, chromatin-bound Polη 24 h post-UV; conditions: glycan lost; control: wild type
[14] = unreplicated CPDs in ssDNA, complemented XP30RO, 4 h post-UV; conditions: glycan lost; control: wild type
[15] = in vitro ubiquitination of E. coli-purified His-Polη; conditions: glycan lost; control: WT His-Polη without OGT co-expression

Protein	other: replication fork progression, other: median fiber length [1]	other: replication fork progression, other: median fiber length [2]	localisation_or_trafficking [3]	localisation_or_trafficking [4]	other: site-specific ubiquitination [5]	localisation_or_trafficking [6]	other: polyubiquitination [7]	other: UV-induced mutation frequency [8]	other: CPD lesion bypass [9]	other: polyubiquitination [10]	other: translesion synthesis after cisplatin, other: % cells with >10 RPA2 foci [11]	localisation_or_trafficking [12]	localisation_or_trafficking [13]	other: CPD lesion bypass [14]	other: polyubiquitination [15]
B1	no change, 12.07 vs 12.17	decreases, 8.62 vs 10.65	no change	increases	decreases	no change	decreases	increases	no change	decreases	increases, 33.4 vs 12.6	increases	increases	no change	–
B2	–	–	–	–	–	–	–	–	–	–	–	–	–	–	no change
